In patent US20220088180A1:
Read-outs that look alike come from different tables or passages of the source.

What was measured:
Assay in all cases: radioligand competition, purified MHC
HLA-B*15:01 (human) = biological target: HLA-B*15:01 (human)
HLA-B*44:03 (human) = biological target: HLA-B*44:03 (human)
HLA-B*18:01 (human) = biological target: HLA-B*18:01 (human)
HLA-B*44:02 (human) = biological target: HLA-B*44:02 (human)
HLA-B*07:02 (human) = biological target: HLA-B*07:02 (human)
HLA-A*01:01 (human) = biological target: HLA-A*01:01 (human)
HLA-A*02:01 (human) = biological target: HLA-A*02:01 (human)
HLA-B*51:01 (human) = biological target: HLA-B*51:01 (human)
HLA-A*26:01 (human) = biological target: HLA-A*26:01 (human)
[1] = remark: other sources report otherwise

Binder | IC50 (HLA-B*15:01 (human)) [µM] | IC50 (HLA-B*44:03 (human)) [µM] | IC50 (HLA-B*18:01 (human)) [µM] | IC50 (HLA-B*44:02 (human)) [µM] | IC50 (HLA-B*07:02 (human)) [µM] | IC50 (HLA-A*01:01 (human)) [µM] | IC50 (HLA-A*02:01 (human)) [µM] | IC50 (HLA-B*51:01 (human)) [µM] | IC50 (HLA-A*26:01 (human)) [µM] | IC50 (HLA-B*15:01 (human); [1]) [µM] | IC50 (HLA-B*44:03 (human); [1]) [µM] | IC50 (HLA-A*01:01 (human); [1]) [µM] | IC50 (HLA-B*51:01 (human); [1]) [µM] | IC50 (HLA-B*18:01 (human); [1]) [µM] | IC50 (HLA-B*44:02 (human); [1]) [µM] | IC50 (HLA-A*26:01 (human); [1]) [µM] | IC50 (HLA-A*02:01 (human); [1]) [µM]
HADQLTPTW (modifications not checked) [… (SEQ ID NO: 35)] | 13.4 | 1.8 | 3.35 | 5.26 | – | – | – | – | – | – | – | – | – | – | – | – | –
KAFQLTPIAV (modifications not checked) [… (SEQ ID NO: 13)] | 1.2 | 16.4 | 3.87 | > 70 | 8.6 | > 70 | 0.0078 | 38.7 | > 70 | – | – | – | – | – | – | – | –
VGYLQPRTF (modifications not checked) [… (SEQ ID NO: 39)] | 0.777 | > 70 | 0.707 | > 70 | > 70 | > 70 | > 70 | – | > 70 | – | – | – | – | – | – | – | –
ELPDEFVVVTV (modifications not checked) [… (SEQ ID NO: 8)] | 35.1 | > 70 | 1.13 | > 70 | > 70 | > 70 | 0.0016 | > 70 | 0.072 | – | – | – | – | – | – | – | –
ELPDEFVVV (modifications not checked) [… (SEQ ID NO: 12)] | > 70 | > 70 | > 70 | > 70 | > 70 | > 70 | 0.46 | > 70 | 6.86 | – | – | – | – | – | – | – | –
QLTPTWRVY (modifications not checked) [… (SEQ ID NO: 38)] | 0.011 | > 70 | > 70 | > 70 | > 70 | > 70 | > 70 | > 70 | > 70 | – | – | – | – | – | – | – | –
FGDDTVIEV (modifications not checked) [… (SEQ ID NO: 23)] | – | – | – | – | > 70 | – | – | – | – | 2.38 | > 70 | > 70 | 45.7 | > 70 | > 70 | > 70 | –
FAVDAAKAY (modifications not checked) [… (SEQ ID NO: 28)] | 0.0027 | > 70 | 35.9 | > 70 | > 70 | > 70 | > 70 | > 70 | 0.0067 | – | – | – | – | – | – | – | –
SLEDKAFQL (modifications not checked) [… (SEQ ID NO: 7)] | 1.58 | – | – | – | – | – | 0.02 | – | – | – | – | – | – | – | – | – | –
IRQEEVQEL (modifications not checked) [… (SEQ ID NO: 31)] | > 70 | > 70 | > 70 | > 70 | > 70 | > 70 | > 70 | > 70 | > 70 | – | – | – | – | – | – | – | –
YLNSTNVTI (modifications not checked) [… (SEQ ID NO: 24)] | 0.0012 | 49.6 | – | – | 7.93 | – | 0.012 | 3.62 | – | – | – | – | – | – | – | – | –
MLLGSMLYM (modifications not checked) [… (SEQ ID NO: 4)] | 0.0011 | – | – | 18.9 | – | – | < 0.0005 | 7.87 | 45.5 | – | – | – | – | – | – | – | –
NATNVVIKV (modifications not checked) [… (SEQ ID NO: 37)] | > 70 | 8.11 | > 70 | > 70 | > 70 | > 70 | – | 0.536 | 43.4 | – | – | – | – | – | – | – | –
KRVDWTIEY (modifications not checked) [… (SEQ ID NO: 29)] | – | – | – | – | > 70 | – | – | – | – | 0.356 | > 70 | > 70 | 22.7 | > 70 | > 70 | > 70 | > 70
